From patent US20030199438A1, “Method for identification of proteins from intracellular bacteria” (priority 2001, published 2003)
Entries after “also recorded” stand apart in the source; their conditions may differ.

Experiments:
host cell proteasome [1] = assay: Pulse chase studies in combination with proteasome inhibitors (2D-PAGE); assay type: cell-based, C. trachomatis D infected cells; design: key to Affected by MG115 / Affected by MG132: +: turnover times is prolonged by treatment with different proteasome inhibitors during labelling and chase; details: for level on chased+MG132 gels compared to controls: labelled 22-24 h.p.i., chased 24-28 h.p.i. with MG132 (10-100 μM; 20 μM in FIG. 6); for turnover time upon addition of proteasome inhibitors: proteasome inhibitors added during the chase period; for Affected by MG115 / Affected by MG132: turnover time of C. trachomatis D protein, inhibitor during labelling and chase
Method: (§1) To label chlamydial proteins for two hour periods, infected cell cultures were incubated in a medium containing RPMI 1640, […] gentamycin, 40 μg/ml cycloheximide, 100 μCi/ml [35S]-methionine/cysteine (Promix, Amersham Pharmacia Biotech, Uppsala, Sweden) as described previously (Shaw et al., 1999,2000) [18.] [19.]. After labelling the labelling medium was changed to normal growth medium following two washes in normal growth medium and the infected cells were harvested at different points in time after labelling. Similarly, labelled EB proteins were obtained by allowing the Chlamydia to grow until 72 h.p.i. after the two hour labelling periods. The labelled EB were then harvested and purified using two consecutive steps of density gradient ultracentrifugation essentially as described for C. trachomatis in (Schacter and Wyrick, 1994) [22.]and for C. pneumoniae (Knudsen et al. 1999 [17.]). Proteins in the EB preparation and pulse chase preparation were labelled at the same intervals as proteins from the whole cell lysate preparation to facilitate correct 2D-PAGE protein profile comparison.
Cell permeable proteasome inhibitors are added to the infected cell cultures during the labelling and chase period and the turnover time of proteins compared to that observed for labelling/chase without proteasome inhibitors added. Proteins were labelled in the presence or absence of 10-100 μM of the proteasome inhibitor MG-132 from 22-24 h.p.i. The labelling medium was then replaced with growth medium with or without MG132 after two washes in normal growth medium and chased from 24 h.p.i. to 28 h.p.i. Cell lysates were run on 2D-PAGE(IPG) and compared to controls without MG-132. and to gels with proteins harvested immediately after labelling (FIGS. 6A, B and C).
The invention includes the use of several other proteasome inhibitors (e.g. MG115, MG262, PSI and lactocystein), which inhibit different parts of the catalytic activity of the proteasome, which may elucidate other proteins that are degraded in the proteasome (Table IV).

[2] = tested on: C. trachomatis D infected cell cultures; assay: Pulse chase studies of candidates for secreted proteins (2D-PAGE); assay type: cell-based
Method: as §1
In order to estimate the time in which the identified candidate proteins could be present inside infected cells, the invention provides a series of pulse chase studies. In the following examples infected cell cultures were [35S]-labelled from 22-24 hours. After the labelling period the medium was changed to normal RPMI growth medium without [35S]-methionine and cells were harvested at different times after labelling.

host cell proteasome [3] = assay: Immunoblotting with PAb255 against CT610 of MG132 treated infected cells; assay type: cell-based, C. trachomatis D infected cells; details: for abundance on 2D-gel immunoblot with PAb255 after MG132 treatment: MG132 for 6 hours prior to harvesting at 30 h.p.i.
Method: In order to confirm that the PAbs recognized the correct vaccine candidates and to visualize potential post translational modifications or processing, 2D-PAGE immunoblotting were performed. 500 μg unlabelled and 2×10^6 cpm labelled C. trachomatis D or C. pneumoniae protein from whole cell lysates was separated by 2D-PAGE, and proteins were electroblotted on to PVDF membranes. Immunostaining was carried out using a 1/5001/1000 dilution of the PAbs in a buffer containing 150 mM NaCl (or in high salt, 400 mM), 20 mM Tris, 0.2% w/v gelatin, 0.05% v/v Tween 20 (Bio-Rad) and 2% v/v normal goat serum (Dako, Glostrup Denmark).
The secondary antibody used was alkaline phosphatase-conjugated goat anti-rabbit IgG (Bio-Rad) diluted 1/2000 in antibody buffer. Blots were stained with 5-bromo-4-chloro-3-indolylphosphate toluidium (BCIP)/nitroblue tetrazolium (NBT) (Bio-Rad) until a clear reaction was detected. Immunoblots were computer scanned and subsequently exposed to X-ray films for approximately 8 days. Melanie II Software was used in order to compare immunostained proteins with their [35S]-labelled counterparts.
DT7 was identified as CT610 and was located just above DT9, DT10, DT11 and DT12 (FIG. 6A). IMB with PAb255 against CT610 on 2D-gel blots (FIG. 7C1) of whole cell lysates clearly reacted with two rows of spots, one row representing DT7 and the other row representing DT9, DT10, DT11 and DT12. CT610 is therefore present in different isoforms presumably due to different posttranslational modification and processing.
IMB with PAb255 was performed on ordinary SDS-PAGE PVDF blots with protein from whole cell lysates treated for six hours in the presence or absence of MG132, respectively.

Molecule	level on chased+MG132 gels compared to controls (host cell proteasome [1])	turnover time upon addition of proteasome inhibitors (host cell proteasome [1])	Affected by MG115 (host cell proteasome [1])	Affected by MG132 (host cell proteasome [1])	turnover time in pulse chase studies [2]	abundance on 2D-gel immunoblot with PAb255 after MG132 treatment (host cell proteasome [3])	level of band on SDS-PAGE immunoblot with PAb255, MG132 treated vs untreated (host cell proteasome [3]; six hours with or without MG132 (50 μM), harvested 30 h.p.i.)	abundance on 2D-gel immunoblot with PAb255 after MG132 treatment (host cell proteasome [3]; listed as DT111)	turnover time (time present after synthesis) ([2]; labelled 22-24 h.p.i., chased) [h]
DT9: C. trachomatis D protein spot identified as CT610 (lower row) (protein) MNFLDQLDLIIQNKHMLEHTFYVKWSKGELTKEQLQAYAKDYYLHIKAFPKYLSAIHSRCDDLEARKLLLDNLMDEENGYPNHIDLWKQFVFALGVTPEELEAHEPSEAAKAKVATFMRWCTGDSLAAGVAALYSYESQIPRIAREKIRGLTEYFGFSNPEDYAYFTEHEEADVRHAREEKALIEMLLKDDADKVLEASQEVTQSLYGFLDSFLDPGTCCSCHQSY	significantly greater; also recorded: higher; also recorded: significantly increased	prolonged	+	+	short	clear relative increase; also recorded: clearly increased	–	–	–
DT10: C. trachomatis D protein spot identified as CT610 (lower row) (protein) MNFLDQLDLIIQNKHMLEHTFYVKWSKGELTKEQLQAYAKDYYLHIKAFPKYLSAIHSRCDDLEARKLLLDNLMDEENGYPNHIDLWKQFVFALGVTPEELEAHEPSEAAKAKVATFMRWCTGDSLAAGVAALYSYESQIPRIAREKIRGLTEYFGFSNPEDYAYFTEHEEADVRHAREEKALIEMLLKDDADKVLEASQEVTQSLYGFLDSFLDPGTCCSCHQSY	significantly greater; also recorded: higher; also recorded: significantly increased	prolonged	+	+	short	clear relative increase; also recorded: clearly increased	–	–	–
DT7: C. trachomatis D protein spot identified as CT610 (upper row) (protein) MNFLDQLDLIIQNKHMLEHTFYVKWSKGELTKEQLQAYAKDYYLHIKAFPKYLSAIHSRCDDLEARKLLLDNLMDEENGYPNHIDLWKQFVFALGVTPEELEAHEPSEAAKAKVATFMRWCTGDSLAAGVAALYSYESQIPRIAREKIRGLTEYFGFSNPEDYAYFTEHEEADVRHAREEKALIEMLLKDDADKVLEASQEVTQSLYGFLDSFLDPGTCCSCHQSY	not significantly affected	–	–	–	short	–	not significantly altered	–	–
DT11: C. trachomatis D protein spot identified as CT610 (lower row) (protein) MNFLDQLDLIIQNKHMLEHTFYVKWSKGELTKEQLQAYAKDYYLHIKAFPKYLSAIHSRCDDLEARKLLLDNLMDEENGYPNHIDLWKQFVFALGVTPEELEAHEPSEAAKAKVATFMRWCTGDSLAAGVAALYSYESQIPRIAREKIRGLTEYFGFSNPEDYAYFTEHEEADVRHAREEKALIEMLLKDDADKVLEASQEVTQSLYGFLDSFLDPGTCCSCHQSY	significantly greater; also recorded: higher; also recorded: significantly increased	prolonged	+	+	short	clearly increased	–	clear relative increase	–
CT858: C. trachomatis 67 kDa protein, fragments DT4 (C-terminal) and DT48 (N-terminal) (protein) MKMNRIWLLLLTFSSAIHSPVQGESLVCKNALQDLSFLEHLLQVKYAPKTWKEQYLGWDLVQSSVSAQQKLRTQENPSTSFCQQVLADFIGGLNDFHAGVTFFAIESAYLPYTVQKSSDGRFYFVDIMTFSSEIRVGDELLEVDGAPVQDVLATLYGSNHKGTAAEESAALRTLFSRMASLGHKVPSGRTTLKIRRPFGTTREVRVKWRYVPEGVGDLATIAPSIRAPQLQKSMRSFFPKKDDAFHRSSSLFYSPMVPHFWAELRNHYATSGLKSGYNIGSTDGFLPVIGPVIWESEGLFRAYISSVTDGDGKSHKVGFLRIPTYSWQDMEDFDPSGPPPWEEFAKIIQVFSSNTEALIIDQTNNPGGSVLYLYALLSMLTDRPLELPKHRMILTQDEVVDALDWLTLLENVDTNVESRLALGDNMEGYTVDLQVAEYLKSFGRQVLNCWSKGDIELSTPIPLFGFEKIHPHPRVQYSKPICVLINEQDFSCADFFPVVLKDNDRALIVGTRTAGAGGFVFNVQFPNRTGIKTCSLTGSLAVREHGAFIENIGVEPHIDLPFTANDIRYKGYSEYLDKVKKLVCQLINNDGTIILAEDGSF	–	–	–	–	long	–	–	–	–
DT8: novel 7.2 kDa C. trachomatis specific protein, SEQ ID NO:1, not annotated in genome (protein, listed as Chlamydia trachomatis) MQHTIMLSLENDNDKLASMMDRVVAASSSILSASKDSESNRQFTISKAPDKEAPCRVSYVAASALSE	–	–	–	–	short	–	–	–	< 6
DT4: C. trachomatis D protein spot, C-terminal fragment of CT858 (protein) GYNIGSTDGFLPVIGPVIWESEGLFRAYISSVTDGDGKSHKVGFLRIPTYSWQDMEDFDPSGPPPWEEFAKIIQVFSSNTEALIIDQTNNPGGSVLYLYALLSMLTDRPLELPKHRMILTQDEVVDALDWLTLLENVDTNVESRLALGDNMEGYTVDLQVAEYLKSFGRQVLNCWSKGDIELSTPIPLFGFEKIHPHPRVQYSKPICVLINEQDFSCADFFPVVLKDNDRALIVGTRTAGAGGFVFNVQFPNRTGIKTCSLTGSLAVREHGAFIENIGVEPHIDLPFTANDIRYKGYSEYLDKVKKLVCQLINNDGTIILAEDGSF	–	–	–	–	long	–	–	–	–
DT48: C. trachomatis D protein spot, N-terminal fragment of CT858 (protein) IHSPVQGESLVCKNALQDLSFLEHLLQVKYAPKTWKEQYLGWDLVQSSVSAQQKLRTQENPSTSFCQQVLADFIGGLNDFHAGVTFFAIESAYLPYTVQKSSDGRFYFVDIMTFSSEIRVGDELLEVDGAPVQDVLATLYGSNHKGTAAEESAALRTLFSRMASLGHKVPSGRTTLKIRRPFGTTREVRVKWRYVPEGVGDLATIAPSIRAPQLQKSM	–	–	–	–	long	–	–	–	–
